Data taken from US20190040138A1.

Biological target: PD-1 antigen stably expressed on the surface of BB007 cells (UniProt Q15116)
Test: flow cytometry on BB007 cells; control, printed under the column 0 nM

Chain of PD-1 antigen stably expressed on the surface of BB007 cells (Q15116 25-288 limits assumed): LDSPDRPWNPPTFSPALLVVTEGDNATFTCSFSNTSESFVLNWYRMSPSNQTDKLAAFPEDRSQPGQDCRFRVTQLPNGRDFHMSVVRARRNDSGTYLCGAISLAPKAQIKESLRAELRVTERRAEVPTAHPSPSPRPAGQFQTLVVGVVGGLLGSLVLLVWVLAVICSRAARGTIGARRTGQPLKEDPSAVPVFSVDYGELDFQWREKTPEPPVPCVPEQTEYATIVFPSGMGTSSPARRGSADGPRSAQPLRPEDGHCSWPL

Substance hIgG (antibody) has a fluorescence intensity of 7.4.
